Laboratory results from article PMC7708078, “How to limit the speed of a motor: the intricate regulation of the XPB ATPase and translocase in TFIIH” (Nucleic Acids Research, 2020).

Legend:
[1] = tested on: ctXPB;ctp52;ctp8 (Chaetomium thermophilum;Chaetomium thermophilum;Chaetomium thermophilum); assay: fluorescence polarization; settings: ctp52/ctp8 2:1 to ctXPB; Kd in nM XPB; 2.5 mM MgCl2, no ATP stated; 20 mM HEPES pH 7.5, 10 mM KCl, 2.5 mM MgCl2, 1 mM TCEP, 6 nM DNA, room temperature
[2] = tested on: ctXPB (Chaetomium thermophilum); assay: fluorescence polarization; settings: 20 mM HEPES pH 7.5, 10 mM KCl, 2.5 mM MgCl2, 1 mM TCEP, 6 nM DNA, room temperature
[3] = biological target: ctXPB (from E. coli) (Chaetomium thermophilum)
[4] = biological target: ctXPB (from E. coli) (Chaetomium thermophilum); remark: listed apart in the source
[5] = biological target: ctXPB (from E. coli) (Chaetomium thermophilum); remark: listed apart in the source

| Substance | activation of ctXPB's ATPase by the ctp52/ctp8 variant, percent of wild type ctp52/ctp8 (% of wild type) [5] | also measured |
| --- | --- | --- |
| AGCTACCATGCCTGCACGAATTAAGCAATTCGTAATCATGGTCATAGC (double strand) [Cy3-dsDNA 48 bp] | – | Kd [1]: 51 nM; Kd [2]: 0.077 µM |
| ctp52 (natural protein) | – | ATPase activity of ctXPB on titration of the co-purified ctp52/ctp34 complex to a fixed amount of ctXPB (Vmax 9.3 μmol ATP*l^−1*min^−1); EC50 [3]: 0.178 µM |
| ctp52/ctp8 complex (wild type, co-purified) | – | ATPase activity of ctXPB on titration of the co-purified ctp52/ctp8 complex to a fixed amount of ctXPB (full activation 20.1 μmol ATP*l^−1*min^−1); EC50 [3]: 0.153 µM; decrease of the dsDNA-activated ATPase activity of ctXPB (from 58.8 to 18.9 μmol ATP*l^−1*min^−1) on titration of ctp52/ctp8 to an equimolar ctXPB/DNA complex; EC50 [4]: 0.138 µM |
| ctp52_E359K/R363E / ctp8 complex | 6 | – |
| ctp52_E359K/ctp8 complex | 5 | – |
| ctp52_F387K/ctp8 complex | 46 | – |
| ctp52_M390E/ctp8 complex | 57 | – |
| ctp52_R363E/ctp8 complex | 134 | – |
| ctp52_R386L/ctp8 complex | 116 | – |
| ctp52_Y365A/ctp8 complex | 53 | – |
